Results as given in patent publication US20130029358A1, “IMMUNODOMINANT MHC DR52B RESTRICTED NY-ESO-1 EPITOPES, MHC CLASS II MONOMERS AND MULTIMERS, AND USES THEREOF” (LUDWIG INSTITUTE FOR CANCER RESEARCH LTD., priority 2010, published 2013).

Experiments:
DR52b = target: T1, DR52b (Homo sapiens, UniProt P01903+P79483); assay: DR52b competition binding assay with biotin-labeled HA306-318 peptide; conditions: relative to untagged peptide
T1 construct: made in house; host or cells: D.Mel-2 (Drosophila) cells, pMT/BiP/V5-His A vector, secreted, purified on L243 anti-HLA-DR column
Protocol: (§1) FIG. 16. DR52b binding capacity of His-tagged and untagged ESO peptides and recognition by specific clones. (A) The capacity of His-tagged and untagged ESO peptides to bind to DR52b was assessed in a competition assay with a biotin-labeled HA-derived peptide. ESO and control peptides were incubated overnight at 37° C., at the indicated concentrations, with recombinant empty DR52b protein (5 μg) and biotin-labeled HA306-318 peptide (0.2 μM). The quantity of DR52b molecules containing the biotin-labeled peptide in each test-point was assessed by ELISA using anti-HLA-DR (clone L243) coated plates and alkaline phosphatase-labeled streptavidin. (B) ESO specific clones were incubated with DR52b^+ EBV-B cells and ESO peptides, at the indicated concentrations, and IFN-γ was measured by ELISA in 24 hrs culture supernatants. Results are shown for one clone representative of 3 clones tested.
Because our new approach involves the addition of a His-tag to the ESO peptides, it was important to address the effect of this modification on peptide binding to class II molecules and recognition by specific CD4^+ T cells. With this aim we assessed the relative efficiency of untagged and His-tagged ESO peptides to bind to DR52b using a previously described competition assay (13).

ESO specific clones = assay: Recognition of His-tagged and untagged ESO peptides by specific clones with DR52b+ EBV-B cells (IFN-γ ELISA); assay type: cell-based, human; conditions: 24 hrs
Protocol: as §1, with “tested. DR52b^+ ESO-specific CD4^+ T cell clones or polyclonal cultures were stimulated in the absence or presence of ESO peptides (2 μM) or PMA (100 ng/ml) and ionomycin (1 μg/ml), as indicated, and cytokine production was assessed in a standard 4 hrs intracellular cytokine staining assay using mAb specific for IFN-γ, TNF-α, IL-2, IL-4, IL-10 (BD Biosciences) and IL-17 (eBiosciences), as previously described (9, 34). […]” for “tested.”

Row | effect of His-tag on peptide binding to DR52b (DR52b) | Substance | recognition by specific CD4+ T cells relative to untagged peptide (ESO specific clones)
1 | did not significantly modify | His-tagged ESO119-143: ESO119-143 extended at the N-terminus by 6 His residues and a linker (Ser-Gly-Ser-Gly) | –
2 | did not significantly modify | His-tagged ESO123-137: ESO123-137 extended at the N-terminus by 6 His residues and a linker (Ser-Gly-Ser-Gly) | moderately improved efficiency
